From PMC8908248 (The Journal of Biological Chemistry, 2022)

Key:
[1] = biological target: homodimeric sulfite oxidase Mo domain (Mo/Mo) (human); assay: SEC
SEC = biological target: the molecule itself; assay: SEC

| stoichiometry N [1] | Molecule | stoichiometry N (SEC) |
| --- | --- | --- |
| 2 | homodimeric sulfite oxidase Mo domain (Mo/Mo) (domain or fragment) |  |
|  | mature full-length human sulfite oxidase (WT SOX/SOX homodimer) (enzyme, UniProt P51687 80-545, looked up) ESTHIYTKEEVSSHTSPETGIWVTLGSEVFDVTEFVDLHPGGPSKLMLAAGGPLEPFWALYAVHNQSHVRELLAQYKIGELNPEDKVAPTVETSDPYADDPVRHPALKVNSQRPFNAEPPPELLTENYITPNPIFFTRNHLPVPNLDPDTYRLHVVGAPGGQSLSLSLDDLHNFPRYEITVTLQCAGNRRSEMTQVKEVKGLEWRTGAISTARWAGARLCDVLAQAGHQLCETEAHVCFEGLDSDPTGTAYGASIPLARAMDPEAEVLLAYEMNGQPLPRDHGFPVRVVVPGVVGARHVKWLGRVSVQPEESYSHWQRRDYKGFSPSVDWETVDFDSAPSIQELPVQSAITEPRDGETVESGEVTIKGYAWSGGGRAVIRVDVSLDGGLTWQVAKLDGEEQRPRKAWAWRLWQLKAPVPAGQKELNIVCKAVDDGYNVQPDTVAPIWNLRGVLSNAWHRVHVYVSP | 2 |
